The supplement of paper PMC7125110
± gives the standard error. For some of these results: Variants at the floor of the assay were thinned out.

B1: glmS ribozyme (parent)
chain: AUAAAAGCGCCAGAACUACAGAAAUGUAGUUGACGAGGAGGAGGUUUAUCGAAUUUUCGGCGGAUGCCUCCAAA

What was measured:
Conditions in all cases: with glucosamine-6-phosphate
glucosamine-6-phosphate [1] = variants of: B1; experiment: kcat; higher = faster cleavage; RNA array
How it was run: (§1)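 Barcoded glmS ribozyme variants on sequenced MiSeq chips were transcribed in situ by E. coli RNA polymerase and tracked through a hybridised Cy3 probe at 37 °C. Glucosamine-6-phosphate (40 μM to 10 mM) in HEPES/KCl/Mg(OAc)2 buffer was flowed in, and tiles were imaged over ~14 h. Signals were normalised to baseline and to non-cleaving reference variants; per-tile medians were fit to one- or two-exponential decays to give kobs. kcat and KM came from weighted Michaelis–Menten fits across concentrations.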

glucosamine-6-phosphate [2] = variants of: B1; experiment: self-cleavage kobs at 40 uM GlcN6P; higher = faster cleavage; RNA array
How it was run: as §1

glucosamine-6-phosphate [3] = variants of: B1; experiment: KM; higher = weaker cofactor use; RNA array
How it was run: as §1

glucosamine-6-phosphate [4] = variants of: B1; experiment: self-cleavage kobs at 160 uM GlcN6P; higher = faster cleavage; RNA array
How it was run: as §1

glucosamine-6-phosphate [5] = variants of: B1; experiment: self-cleavage kobs at 640 uM GlcN6P; higher = faster cleavage; RNA array
How it was run: as §1

glucosamine-6-phosphate [6] = variants of: B1; experiment: self-cleavage kobs at 2500 uM GlcN6P; higher = faster cleavage; RNA array
How it was run: as §1

glucosamine-6-phosphate [7] = variants of: B1; experiment: self-cleavage kobs at 10000 uM GlcN6P; higher = faster cleavage; RNA array
How it was run: as §1

Row | Variant | kcat (glucosamine-6-phosphate [1]) [s⁻¹] | self-cleavage kobs at 40 uM GlcN6P (glucosamine-6-phosphate [2]) [s⁻¹] | KM (glucosamine-6-phosphate [3]) [µM] | self-cleavage kobs at 160 uM GlcN6P (glucosamine-6-phosphate [4]) [s⁻¹] | self-cleavage kobs at 640 uM GlcN6P (glucosamine-6-phosphate [5]) [s⁻¹] | self-cleavage kobs at 2500 uM GlcN6P (glucosamine-6-phosphate [6]) [s⁻¹] | self-cleavage kobs at 10000 uM GlcN6P (glucosamine-6-phosphate [7]) [s⁻¹]
1 | U55C C70A | 1.26e-05 ± 1.6e-06 | < 1e-05 |  |  |  |  | 
2 | A52G C71U | 0.00186 ± 0.00014 | 2.74e-05 ± 6e-06 | 3440 ± 380 | 7.83e-05 ± 8.6e-06 | 0.000293 ± 2.7e-05 | 0.00078 ± 0.00015 | 0.00138 ± 0.00012
3 | A52G C71G | 0.00014 ± 1.4e-05 |  | 431 ± 170 | 4.09e-05 ± 1.4e-05 | 7.87e-05 ± 1.1e-05 | 0.000157 ± 2.2e-05 | 0.000127 ± 1.2e-05
4 | A52G C71A | 0.000593 ± 8.1e-05 |  | 3190 ± 730 | 3.52e-05 ± 1.4e-05 | 9.96e-05 ± 1.3e-05 | 0.000247 ± 3.1e-05 | 0.000466 ± 5.9e-05
5 | A52G C67U | 0.000905 ± 0.00016 | 2.66e-05 ± 1.3e-05 | 2370 ± 740 | 7.98e-05 ± 1.7e-05 | 0.000166 ± 2.3e-05 | 0.000524 ± 8.6e-05 | 0.000728 ± 8.4e-05
6 | A52G C67G | 0.000104 ± 6.8e-06 | 6.74e-05 ± 9e-06 | 22.4 ± 10 | 7.15e-05 ± 2.3e-05 | 0.000107 ± 1e-05 | 0.000123 ± 1.6e-05 | 9.62e-05 ± 8.6e-06
7 | A52G U65A | 0.00041 ± 0.00018 |  |  |  | 6.01e-05 ± 1.2e-05 | 0.000103 ± 1.6e-05 | 0.00028 ± 4.3e-05
8 | U54A C70U | 0.00432 ± 0.00063 | 0.00148 ± 0.00013 | 78.3 ± 20 | 0.00258 ± 0.00056 | 0.00479 ± 0.0013 | 0.00404 ± 0.0014 | 
9 | G51A C61A | 1.66e-05 ± 3.1e-06 | < 1e-05 |  |  |  |  | 
10 | U55A | 0.0533 ± 0.012 | 0.00134 ± 4.9e-05 | 1770 ± 530 | 0.0039 ± 0.00028 | 0.0133 ± 0.00067 | 0.025 ± 0.0015 | 0.0555 ± 0.0025
11 | U55C | 0.0394 ± 0.0032 | 0.000797 ± 1.8e-05 | 2000 ± 200 | 0.0027 ± 0.00018 | 0.0091 ± 0.00035 | 0.0201 ± 0.001 | 0.0349 ± 0.0014
12 | U55G | 0.0523 ± 0.0043 | 0.000889 ± 2.1e-05 | 2390 ± 240 | 0.00312 ± 0.00021 | 0.0103 ± 0.00037 | 0.0271 ± 0.0015 | 0.0436 ± 0.0021
13 | G51A C68A | 2.97e-05 ± 4.5e-06 |  |  |  |  |  | 
14 | A53G G66A | 0.0293 ± 0.014 | 0.000617 ± 0.00011 |  |  | 0.00474 ± 0.0013 | 0.0128 ± 0.005 | 0.0293 ± 0.0075
15 | A53G U56A | 0.0133 ± 0.0047 | 0.000437 ± 9e-05 | 1830 ± 890 | 0.00116 ± 0.00021 | 0.00273 ± 0.00051 | 0.00663 ± 0.0019 | 0.0137 ± 0.0026
16 | A53C U55C | 0.0014 ± 0.00029 |  | 1150 ± 480 | 0.00015 ± 4e-05 | 0.00052 ± 9.2e-05 | 0.00148 ± 0.00029 | 0.00116 ± 0.00017
17 | A53C C68G | < 1e-05 |  |  |  |  |  | 

Row | Variant | kcat (glucosamine-6-phosphate [1]) [s⁻¹] | self-cleavage kobs at 40 uM GlcN6P (glucosamine-6-phosphate [2]) [s⁻¹] | KM (glucosamine-6-phosphate [3]) [µM] | self-cleavage kobs at 160 uM GlcN6P (glucosamine-6-phosphate [4]) [s⁻¹] | self-cleavage kobs at 640 uM GlcN6P (glucosamine-6-phosphate [5]) [s⁻¹] | self-cleavage kobs at 2500 uM GlcN6P (glucosamine-6-phosphate [6]) [s⁻¹] | self-cleavage kobs at 10000 uM GlcN6P (glucosamine-6-phosphate [7]) [s⁻¹]
18 | A53C U69G | 4.01e-05 ± 8e-06 |  |  |  | 5.28e-05 ± 1.3e-05 | 4.25e-05 ± 8.8e-06 | 
19 | A52G G62U | < 1e-05 |  |  |  |  |  | 
20 | C50U U54A C70U | 3.48e-05 ± 1e-05 |  |  |  | 6e-05 ± 2.4e-05 | 2.99e-05 ± 1.5e-05 | 
21 | A52G A53G | 0.00183 ± 0.00052 |  | 3690 ± 1700 | 0.000131 ± 3e-05 | 0.000264 ± 5.9e-05 | 0.000638 ± 0.0001 | 0.00145 ± 0.0002
22 | A53C G66A | 0.00434 ± 0.0011 | 0.000154 ± 2.2e-05 | 1670 ± 640 | 0.000292 ± 6.4e-05 | 0.00107 ± 0.00017 | 0.00288 ± 0.00047 | 0.00374 ± 0.00053
23 | C50U G63U | 1.75e-05 ± 7.2e-06 | < 1e-05 |  |  |  |  | 
24 | C50U G63C | < 1e-05 |  |  |  |  |  | < 1e-05
25 | G51A C70U | 1.48e-05 ± 3.4e-06 |  |  |  |  |  | 
26 | U55C G62C | 1.58e-05 ± 2.1e-06 |  | 1220 ± 460 |  |  |  | 
27 | U55C G60U | 1.04e-05 ± 3.4e-06 | < 1e-05 |  | < 1e-05 | < 1e-05 |  | < 1e-05
28 | C50U U55G | 4.41e-05 ± 2.5e-06 |  | 304 ± 130 |  | 2.74e-05 ± 1.4e-05 | 4.31e-05 ± 7.9e-06 | 4.07e-05 ± 6.8e-06
29 | G51U C68G | 4.24e-05 ± 1.1e-05 |  |  |  | 5.2e-05 ± 9.7e-06 | 4.27e-05 ± 1e-05 | 
30 | U56C A64U | < 1e-05 | < 1e-05 |  |  | < 1e-05 |  | 
31 | A52G G59A | < 1e-05 | < 1e-05 |  |  |  |  | 
32 | A53G U57A | 0.000309 ± 2.3e-05 |  | 3400 ± 490 |  | 4.7e-05 ± 1.1e-05 | 0.000134 ± 2.3e-05 | 0.00023 ± 2.9e-05
33 | U54A U56G | 0.0107 ± 0.0029 | 0.000226 ± 4.9e-05 | 1740 ± 650 | 0.000857 ± 0.00017 | 0.00363 ± 0.00057 | 0.00548 ± 0.00089 | 0.0131 ± 0.0038
